# From publication PMC3507807, “DNA binding specificity of ATAF2, a NAC domain transcription factor targeted for degradation by Tobacco mosaic virus” (BMC Plant Biology, 2012)
# T1: ATAF2 (Arabidopsis thaliana) (UniProt Q9C598)
# T1 sequence: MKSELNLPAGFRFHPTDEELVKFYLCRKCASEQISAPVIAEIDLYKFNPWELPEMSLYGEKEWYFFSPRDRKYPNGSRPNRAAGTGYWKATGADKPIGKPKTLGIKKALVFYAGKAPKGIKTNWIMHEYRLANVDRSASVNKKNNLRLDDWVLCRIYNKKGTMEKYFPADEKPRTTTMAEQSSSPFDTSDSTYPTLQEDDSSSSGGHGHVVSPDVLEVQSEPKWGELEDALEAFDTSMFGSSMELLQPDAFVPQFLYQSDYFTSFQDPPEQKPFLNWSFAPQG
# T2: ATAF2 (Arabidopsis thaliana, UniProt Q9C598 1-283)
# T2 sequence: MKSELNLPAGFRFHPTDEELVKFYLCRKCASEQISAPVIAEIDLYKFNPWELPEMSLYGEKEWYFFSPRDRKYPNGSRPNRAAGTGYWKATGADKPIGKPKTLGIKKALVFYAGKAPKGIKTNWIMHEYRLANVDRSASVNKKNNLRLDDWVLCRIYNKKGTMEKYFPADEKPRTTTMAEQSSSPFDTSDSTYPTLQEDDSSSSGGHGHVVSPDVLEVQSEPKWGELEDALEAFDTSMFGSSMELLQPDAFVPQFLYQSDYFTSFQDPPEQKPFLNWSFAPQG
# Tests used:
# [1] = molecular target: T1, ATAF2 (Arabidopsis thaliana); experiment: EMSA; conditions: EMSA: 20 mM Tris-HCl pH 8.0, 60 mM KCl, 5 mM MgCl2, 100 ug/ml BSA, 5% glycerol, 1 mM DTT, 0.5 ug poly(dI-dC) in 10 ul, 100-300 fmol probe, 25 C 30 min
# ATAF2 = molecular target: T2, ATAF2; experiment: EMSA; binding not dramatically reduced; EMSA: 20 mM Tris-HCl pH 8.0, 60 mM KCl, 5 mM MgCl2, 100 ug/ml BSA, 5% glycerol, 1 mM DTT, 0.5 ug poly(dI-dC) in 10 ul, 100-300 fmol probe, 25 C 30 min; 5% native PAGE, 0.5X TBE. Footprint: same binding buffer, 10 fmol probe; conditions: protein: recombinant; tags: N-terminal His6 (pTrcHisA); chain copies: 2; label: 5'-32P
# [2] = molecular target: the molecule itself; experiment: SEC; Superdex-200 HR 10/30; ~160 ug purified protein, incubated 20 min at room temperature and run in 25 mM Tris-HCl pH 7.5, 10% glycerol, 500 mM NaCl, 0.5 mM EDTA; fractions checked by SDS-PAGE; mass markers 670, 158, 44 and 17 kDa
molecule,measurement,setting,value
TCAGAAGAGCAAGAAAATTAAAACACATAT (double strand) [M3 (nt 13-14 TC to GA)],binding signal,[1]; stated as 47% reduction,53 % of WT
TCAGAAGAGCAAGTCCCCTAAAACACATAT (double strand) [C2 (nt 13-18 TCAAAT to GTCCCC)],binding signal,[1]; reduction >85%,< 15 % of WT
TCAGAAGAGCAATCAAACCAAAACACATAT (double strand) [M4 (nt 18-19 TT to CC)],binding signal,[1]; stated as 87% reduction,13 % of WT
TCAGAAGAGCAATCAAATTAAAACACATAT (double strand) [30-bp ATAF2 binding sequence (wild type)],binding signal,[1],100 % of WT
TCAGAAGAGCAATCAAATTAAAGAACATAT (double strand) [M5 (nt 23-24 AC to GA)],binding signal,[1]; stated as 96% reduction,4 % of WT
TCAGAAGAGCAATCAAATTAATTTTTTTAT (double strand) [C3 (nt 22-27 AACACA to TTTTTT)],binding signal,[1]; reduction >85%,< 15 % of WT
TCCAAAGAGCAATCAAATTAAAACACATAT (double strand) [M1 (nt 3-4 AG to CA)],binding signal,[1]; stated as 91% reduction,9 % of WT
TCTTTTTAGCAATCAAATTAAAACACATAT (double strand) [C1 (nt 3-7 AGAAG to TTTTT)],binding signal,[1]; reduction >85%,< 15 % of WT
M2 (dsDNA) DNA 1: TCAGAAGTACAATCAAATTAAAACACATAT DNA 2: ATATGTGTTTTAATTTGATTGTACTTCTGA,binding result,ATAF2,binds
M6 (dsDNA) DNA 1: TCAGAAGAGCAATCAAATTAAAACACACCT DNA 2: AGGTGTGTTTTAATTTGATTGCTCTTCTGA,binding result,ATAF2,binds
"ATAF2 NAC domain (ATAF2-165, 1 aa to 165 aa) (domain or fragment, Arabidopsis, UniProt Q9C598 1-165, looked up, ATAF2 (AT5g08790), Arabidopsis thaliana NAC domain transcription factor, truncated version containing only the NAC domain, residues 1-165; source: E. coli BL21 (+), pTrcHisA, purified (Ni-NTA)) MKSELNLPAGFRFHPTDEELVKFYLCRKCASEQISAPVIAEIDLYKFNPWELPEMSLYGEKEWYFFSPRDRKYPNGSRPNRAAGTGYWKATGADKPIGKPKTLGIKKALVFYAGKAPKGIKTNWIMHEYRLANVDRSASVNKKNNLRLDDWVLCRIYNKKGTMEK",stoichiometry N,[2],2
